Data published in the DeepSol protein solubility set.

test: soluble on expression in E. coli; label from the status in PepcDB or PDB records

| Sequence | soluble on expression in E. coli |
| --- | --- |
| MGSDKIHHHHHHMLPLPPYPLPNSIMWTQIDTHISQVTGEKFQSQQRRSVGGGCINQGYAVSNGEITYFVKLNLASQVAMFEAEALGLKEMLATASIRIPQPICWGVAENSSYIVLEWLELGNGNSNTSLRDAPRWEEMGRKLAAMHQASSSQGFGWKINNTIGSTPQINTWTADWTEFYIKHRLGYQFQLARRRGGSFPQQEKLLAAIRELLTHQVQPSLVHGDLWGGNAGCTASGEPVIFDPATYFGDREVDIAMTELFGGFPAAFYKGYNEVFPLDAGYEQRKTLYNLYHILNHFNLFGGGYASQANRMIDQILR | not soluble |
| MSCSSSSMLFLVLIATTVLIAESRVFYNRFDGGLSSDRFMEQKRDGAEASYDYDANQVIRNTMKRNRQCLLNAGLSQGCDFSDLLHAQTQARKFMSFAGPGK | not soluble |
| MCQSNQIVSHFLSHRNVTNELAEKISKDHYSYKPAETSMSAEELVKHILTSFHLFANVIKEGNASPFQNKQEETETDLNVLAKTYTEKTVAILEQLTEEQLDREIDLTSAFGRKVTGRALLQLAMEHEIHHKGNLFVYVREMGHTELPFYQQRMLEHHHHHH | soluble |
| TKEHRAAARKIAGESFVLLKNEGLSPTLAPVLPLSPTGTIAVIGPLANTRSNMPGTWSVAAVLDKSPSLVEGLTEWVGNQGKILYAKGSNLIGDAAYEERATMFGRSLNRDNRTDQQLLDEALKIASQADVIVAALGESSEMSGESSSRTNLNLPDVQHTLLEALLKTGKPVVLVLFTGRPLVLNWEQEHVPAILNVWFGGSEAGPAIGDVLFGAVNPGGKLTMTFPKSVGQIPLYYAHKNTGRPLKEGKWFEKFRSNYLDVDNDALYPFGYGLSYTTF | not soluble |
| MPPIPSRARVYAEVNPSRPREYWDYEAHMIEWGQIDDYQLVRKLGRGKYSEVFEGFKMSTDEKVVVKILKPVKKKKIKREIKILENLRGGTNIITLLDVVKDPISRTPALIFEHVNNSDFKQLYQTLSDYDIRYYLYELLKALDFCHSQGIMHRDVKPHNVMIDAEKRELRLIDWGLAEFYHPRQDYNVRVASRYFKGPELLVDYQCYDYSLDMWSLGCMLASMIFRKEPFFHGHDNYDQLVRIAKVLGTDELYEYIARYHIDLDPRFNDILGRHSRKRWERFIHAENQHLVTPEALDFLDKLLRYDHAERLTAQEAMGHEYFRPVVEAHARANGTEQADGQGASNSASSQSSDAKIDGA | not soluble |
| MSHHRIIIIGAGAAGVGMAITLQEFNIKDVLIVEKGTIGHSFKHWPLSTKTITPSFTTNGFGMPDMNAIAKDTSPAFTFNEEHLSGKRYAEYLSLVATHYNLNVKTNTNVSRVTYIDGIYHVSTYYGVYTADYIFIATGDYSFPYHPFSYGLHYSEIQTFTQLKGDAFTIIGGNESAFDAAINLSQTGARISIYTSKTGLKKEDADPSIRLSPYTQQRLRNAIQEGALIEMHVGYQARKITYQNHSYKIHFDNGHIVHSHTEPIIATGFDVTQNPLIEQLFQVRQSEVQLTELDESTKFPNVFLIGATVRHQNAILCYIYKFRARFAVLARIVSLREGLPEDTSLIQSYRQKNMFLDDYSCCDVNCTCLEHHHHHH | not soluble |
| ANNGAHRDMDLNTFIASAEAIAPYLHSFVSAGWESAGNPAAQLLSALRPIGIEAEQAMFAATQGVNTHKGMIFILGLICGSVGWLKANQLKIDAQHIGETIRQACQFLVIDELKAKRDCEPETAGERIYRQYGLTGARGEAASGLAMVMQHALPAYQACLTKGASTEQALWHTLLVLMANNNDSNLVSRGGLAGLHFVQEQAQQLLAKGGFLYQEIEQALTALDSVLIEKHLS | not soluble |
| AKTTIIAGSAEAPQGSDIQVPVKIENADKVGSINLILSYPNVLEVEDVLQGSLTQNSLFDYQVEGNQIKVGIADSNGISGDGSLFYVKFRVTGNEKAEQAENVKGKLRGLGQQLSEITLRNSHALTLQGIEIYDIDGNSVKVATINGTFRIVSQEEAHHHHHH | soluble |
| MLRCADGALYTGVSTDVARRYRQHQAGKGARYTRLNPPLAVELVIEYPDRSAALRAEHAFKRLSAAAKRDFLRAHGDAGPSSLEHHHHHH | not soluble |
| MEKSEIQKVDQVIRAWLEDEPLMYERLLEVEALEALPQVLGPLYKFLGRSRIHDGVLYLTFNSSVVRSQLSNNKAELLLRLNTAVDAELIRQIVFL | not soluble |
| MEKILEKIEEFFGFIPEIFKVLEDEPEILEAYYDKMEKILSNDALPLVTKELIGVGAAAALGSEHCLKTHIKAAKRLDAGGDEILLAILIGASMAESTALSRSLRVFKEERMDL | not soluble |
| MGSDKIHHHHHHMPVSQPVSSQPPTANCYDLAVIGGGINGVGIAADAAGRGLKVFLCEKDDLAQHTSSASSKLIHGGLRYLEHYEFRLVREALAEREVLLAKAPHIVKPMRFVLPHRPHLRPAWMIRAGLFLYDHLGKRKRLGASRSLRFGPGYPLKPAITRGFEYADCAVDDARLVVLNAMAARELGAHIRTRTRCLRAERVEGLWQVELQHADGSLQTIHARALVNAAGPWVASFIKDDLKLDAPYGIRLIQGSHIIVPRLYEGEHAYILQNEDQRIVFCIPYLDRFTLIGTTDREYSGDPAAVAITEQETHYLLKVVNEHFNHQLSQADILHTYSGVRPLCNDESDNPSAVTRDYTLALSAEVGQAPLLSVFGGKLTTYRKLAESAMAELKPFFTQMRAPWTASAPLPGAEGMTTVQALIDAVLARCGWLPVDLAKRWVLTYGSRVWRLLDGVHGPEDLGQAIGAGLFTREVDYLLEEEWAEQTADIIWRRTKLGLSLTAQEQMALEAYLQQARKVRANSRAA | not soluble |
| MIIKRTPQAASPLASWLSYLENLHSKTIDLGLERVSLVAARLGVLKPAPFVFTVAGTNGKGTTCRTLESILMAAGYKVGVYSSPHLVRYTERVRVQGQELPESAHTASFAEIESARGDISLTYFEYGTLSALWLFKQAQLDVVILEVGLGGRLDATNIVDADVAVVTSIALDHTDWLGPDRESIGREKAGIFRSEKPAIVGEPEMPSTIADVAQEKGALLQRRGVEWNYSVTDHDWAFSDAHGTLENLPLPLVPQPNAATALAALRASGLEVSENAIRDGIASAILPGRFQIVSESPRVIFDVAHNPHAAEYLTGRMKALPKNGRVLAVIGMLHDKDIAGTLAWLKSVVDDWYCAPLEGPRGATAEQLLEHLGNGKSFDSVAQAWDAAMADAKAEDTVLVCGSFHTVAHVMEVIDARRSGGK | soluble |
| MGSDKIHHHHHHMRDSTQLPVTRRMLPSLYQSICLILCSQNLSGINLSGISPSSISLGPSTLFRHTRLSQRLAKFQIPRPIKHQSQRFSIFALACFVAATLSGCANSLETCARTELKLTWAEPAELQATVTILSSDEFEGRKTQTQGAAKSRDYIKQQFESLNLQPWGADFIVPFEYQTFFTQETGANVVATAMATEPTNRWRIIVAHYDHLGMSGSKIYHGADDNASGVAAMLAIAKHWQQQFALQPNTLPKVNLMFVATDAEEPGLYGSIALVEQLKTRLPEATFELMINLDMVSHPGRPYGIYLEGSRNFTQFNQFKSLLNQQNRLCIKLTHPKPVGRSIQSTDWLRASDHYPFHKANIPWLYFGVPTHPQYHTPEDTVATIDITFLAAVTESAFELLQLNAEYLKN | not soluble |
| MTEKKFIQDPWAKMTTRNGLAGDEVISALQKSIRRGKEKDACEFAYEMYITSPQFEEKLWRRLLAISVEDIGMGNPIAALMINNLNMMRKEFQYNESDRAMFFFHAIRYLCGSEKDRSSDLLKNIVIKSFAMGYVPEIPDIALDKHTTRGQEMGRGSEHFLHEASKVIPQAKVENDYKEQYEEIIKKYDPNHVVPSTFVFNPWQVLEHHHHHH | not soluble |
| MADKSTEVEKAIDPIIDLGNLLFIDREPIQGDASEGLEERARKNTQLLFNNIWQLEQKRVEEAIIVTLPPATYRLPREKRLPEKKEPTKWEKYAAEKGIEKRKKDKKVFDEATKEWKPTYGYRRGNDDTKDWLIEIPDNAEDPNKDFFAERREKKKERVAKNDMQRMKNLARQMKTTVKSGPSTEKMIGVGVDAKEKSKQQVRFAVDRAKLATASAGKFQEGLKGEKANVKTGKKRKFEANEAPVSGEKERALQILQRMKSKKAKIVEEKAAAVAGPLREKKEKSERKGAKDQTRQKSQIHRQQWFKNKVDGKKKGTGGAGKKGANKAKARKG | not soluble |
| MLIDKTIILSVAFFTSSVFGQTSDKDFLKKPHVLPSAEAAYHAVYHELDSVKSGNRDEKVFGQLYVALIEDQFTFGGDLSTWPDSAFQKGDRGCKPFMAANLHNLCNNEYFLVHQDMIKLVKTVFERKNQADPSFDTICLANNGFVVSDDPENHLVYRYKHRIPMTYKATSNDQKCFGTYDTRTDTFTCMRYDASTKKMSPFELQNFLWKENTGTFHLGNGNAEVFCKKPFYTNK | not soluble |
